B1: VPS39 (parent)
chain: ITEEKVCMVCKKKIGNSAFARYPN

Variants of: B1
Experiment: protein stability index of a GFP-peptide fusion (GPS, HEK-293T) (PSI 1-6); higher = more stable
Details: c terminus: a fixed tail appended
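Note: lentivirally expressed fusions sorted by FACS into six bins by GFP to DsRed ratio, PSI derived from sequencing read proportions per bin multiplied by bin number.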

With ITEEKVCMVCKKKIGMSAFARYPN [N16M] as the variant, how does the protein stability index read?
Its protein stability index is 1.54.

For ITEEKVCMVCKKKIGTSAFARYPN [N16T], which protein stability index is on record?
The protein stability index was 2.77.

Which protein stability index does the source give for ITEEKVCMVCKKKIGCSAFARYPN [N16C] here?
Its protein stability index is 2.8.

With ITEEKVCMVCKKKIGVSAFARYPN [N16V] as the variant, how does the protein stability index read?
Its protein stability index is 2.37.

Which protein stability index does the source give for ITEEKVCMVCKKKIGWSAFARYPN [N16W] here?
Its protein stability index is 2.08.

With ITEEKVCMVCKKKIGASAFARYPN [N16A] as the variant, how does the protein stability index read?
The protein stability index was 2.42.

With ITEEKVCMVCKKKIGFSAFARYPN [N16F] as the variant, how does the protein stability index read?
Its protein stability index is 1.58.

With ITEEKVCMVCKKKIGESAFARYPN [N16E] as the variant, how does the protein stability index read?
Its protein stability index is 2.48.

For ITEEKVCMVCKKKIGISAFARYPN [N16I], which protein stability index is on record?
The protein stability index was 2.02.

Which protein stability index does the source give for ITEEKVCMVCKKKIGGSAFARYPN [N16G] here?
The protein stability index was 3.01.

For ITEEKVCMVCKKKIGPSAFARYPN [N16P], which protein stability index is on record?
Its protein stability index is 2.81.

For ITEEKVCMVCKKKIGHSAFARYPN [N16H], which protein stability index is on record?
The protein stability index was 2.48.

For ITEEKVCMVCKKKIGRSAFARYPN [N16R], which protein stability index is on record?
The protein stability index was 2.29.

For ITEEKVCMVCKKKIGSSAFARYPN [N16S], which protein stability index is on record?
The protein stability index was 2.35.

With ITEEKVCMVCKKKIGDSAFARYPN [N16D] as the variant, how does the protein stability index read?
Its protein stability index is 2.62.

With ITEEKVCMVCKKKIGYSAFARYPN [N16Y] as the variant, how does the protein stability index read?
The protein stability index was 2.1.

For ITEEKVCMVCKKKIGLSAFARYPN [N16L], which protein stability index is on record?
The protein stability index was 2.05.

Which protein stability index does the source give for ITEEKVCMVCKKKIGQSAFARYPN [N16Q] here?
Its protein stability index is 3.01.

Which protein stability index does the source give for ITEEKVCMVCKKKIGKSAFARYPN [N16K] here?
Its protein stability index is 2.34.

With ITEEKVCMVCKKKIENSAFARYPN [G15E] as the variant, how does the protein stability index read?
Its protein stability index is 2.78.

For ITEEKVCMVCKKKIFNSAFARYPN [G15F], which protein stability index is on record?
Its protein stability index is 2.35.

Which protein stability index does the source give for ITEEKVCMVCKKKIYNSAFARYPN [G15Y] here?
The protein stability index was 2.

With ITEEKVCMVCKKKIRNSAFARYPN [G15R] as the variant, how does the protein stability index read?
The protein stability index was 2.34.

Which protein stability index does the source give for ITEEKVCMVCKKKIANSAFARYPN [G15A] here?
Its protein stability index is 1.39.

For ITEEKVCMVCKKKITNSAFARYPN [G15T], which protein stability index is on record?
The protein stability index was 2.81.

For ITEEKVCMVCKKKIINSAFARYPN [G15I], which protein stability index is on record?
Its protein stability index is 2.8.

For ITEEKVCMVCKKKIQNSAFARYPN [G15Q], which protein stability index is on record?
The protein stability index was 2.99.

Which protein stability index does the source give for ITEEKVCMVCKKKIVNSAFARYPN [G15V] here?
The protein stability index was 2.86.

For ITEEKVCMVCKKKIDNSAFARYPN [G15D], which protein stability index is on record?
The protein stability index was 2.46.

For ITEEKVCMVCKKKIMNSAFARYPN [G15M], which protein stability index is on record?
The protein stability index was 2.23.

With ITEEKVCMVCKKKIPNSAFARYPN [G15P] as the variant, how does the protein stability index read?
Its protein stability index is 2.45.

For ITEEKVCMVCKKKINNSAFARYPN [G15N], which protein stability index is on record?
The protein stability index was 2.37.

With ITEEKVCMVCKKKICNSAFARYPN [G15C] as the variant, how does the protein stability index read?
The protein stability index was 2.98.

With ITEEKVCMVCKKKIWNSAFARYPN [G15W] as the variant, how does the protein stability index read?
The protein stability index was 2.35.

Which protein stability index does the source give for ITEEKVCMVCKKKIHNSAFARYPN [G15H] here?
The protein stability index was 2.02.

Which protein stability index does the source give for ITEEKVCMVCKKKILNSAFARYPN [G15L] here?
Its protein stability index is 2.31.

Which protein stability index does the source give for ITEEKVCMVCKKKIKNSAFARYPN [G15K] here?
The protein stability index was 2.55.

Which protein stability index does the source give for ITEEKVCMVCKKKISNSAFARYPN [G15S] here?
The protein stability index was 2.54.

Which protein stability index does the source give for ITEEKVCMVCKKKIGNSEFARYPN [A18E] here?
Its protein stability index is 3.2.

With ITEEKVCMVCKKKIGNSRFARYPN [A18R] as the variant, how does the protein stability index read?
The protein stability index was 2.26.

Which protein stability index does the source give for ITEEKVCMVCKKKIGNSNFARYPN [A18N] here?
The protein stability index was 2.99.

Which protein stability index does the source give for ITEEKVCMVCKKKIGNSLFARYPN [A18L] here?
The protein stability index was 2.4.

Which protein stability index does the source give for ITEEKVCMVCKKKIGNSMFARYPN [A18M] here?
The protein stability index was 2.34.

For ITEEKVCMVCKKKIGNSVFARYPN [A18V], which protein stability index is on record?
Its protein stability index is 2.

For ITEEKVCMVCKKKIGNSTFARYPN [A18T], which protein stability index is on record?
Its protein stability index is 2.52.

With ITEEKVCMVCKKKIGNSFFARYPN [A18F] as the variant, how does the protein stability index read?
The protein stability index was 2.15.

Which protein stability index does the source give for ITEEKVCMVCKKKIGNSKFARYPN [A18K] here?
The protein stability index was 2.4.
